From patent US20150224182A1 (UNIVERSITY OF VIRGINIA PATENT FOUNDATION, published 2015) come the findings set out here.

Non-standard residues stand in square brackets, D forms with d. No end group written: not given here. pT = C[C@@H](OP(=O)(O)O)[C@H](N)C(=O)O; pS = N[C@@H](COP(=O)(O)O)C(=O)O

Assay [1] deals with T1, HLA-A*0201 (human).
T1 construct: also called HLA-A2
The experiment in a line: MS of HLA-A*0201 (BB7.2) eluate; cultured melanocytes; +++ means 50-500 copies/cell.

Assay [2] has as its target T2, HLA-B*0702 (human).
T2 construct: also called HLA-B7
As to the kind of experiment: HLA-B7 eluate MS; AML1; 1 means <1 copy/cell.
Description: (§1) The mixture was subjected to centrifugation and the resulting supernatant was passed over protein A sepharose pre-loaded with the HLA-A2-specific antibody BB7.2 or HLA-B7-specific antibody ME1. Peptides were eluted from the purified class I MHC molecules with 10% acetic acid.

For assay [3], the target named is T2, HLA-B*0702. As to the kind of experiment: HLA-B7 eluate MS; ALL1; 2 means 1-5 copies/cell.
Description: as §1
In assay [4] the target is T2, HLA-B*0702. As to the kind of experiment: HLA-B7 eluate MS; AML1; 4 means >25 copies/cell.
Description: as §1
Assay [5] addresses T2, HLA-B*0702. As to the kind of experiment: HLA-B7 eluate MS; AML1; 2 means 1-5 copies/cell.
Description: as §1
For assay [6], the target named is T2, HLA-B*0702. The experiment in a line: HLA-B7 eluate MS; ALL1; 3 means 6-25 copies/cell.
Description: as §1
Assay [7] has as its target T2, HLA-B*0702. As to the kind of experiment: HLA-B7 eluate MS; ALL1; 4 means >25 copies/cell.
Description: as §1
Assay [8] concerns the target T1, HLA-A*0201. The experiment in a line: MS of HLA-A*0201 (BB7.2) eluate; cultured melanocytes; ++ means 5-50 copies/cell.
The target in assay [9] is T2, HLA-B*0702. The experiment in a line: HLA-B7 eluate MS; ALL1; 1 means <1 copy/cell.
Description: as §1
The target in assay [10] is T3, HLA B*0702 (human).
T3 construct: Class I MHC molecule of the cells from which the associated phosphopeptides were detected; also called HLA-B7
As to the kind of experiment: MS of peptides eluted from HLA; L/M column: L/M.

Assay [11] concerns the target T1, HLA-A*0201. As to the kind of experiment: competition with iodinated [..] for purified HLA-A*0201 plus β2M, capture on W6/32 plates.
Protocol: Peptide-MHC complexes were captured in W6/32-coated ELISA plates after 48 hours and the dose at which test peptides inhibited binding of the indicator peptide by 50% (IC₅₀) was calculated.

In the case of RLS[pS]PLHFV (also called Protein FAM134A) [ORF 17, chromosome 2 phosphopeptide RLSpSPLHFV], in assay [1], the binding result is listed as “binds”.
In the case of SPEKAGRR[pS]SL [CCDC88B phosphopeptide SPEKAGRRsSL], the binding result in [2] is on record as “binds”.
Take KPPYRSH[pS]L [CCDC45 phosphopeptide KPPYRSHsL]: the binding result in assay [2] is reported as “binds”.
Consider RPKPSS[pS]PV [PCBP2 phosphopeptide RPKPSSsPV], for which, in assay [3], the binding result is “binds”.
On to SPRR[pS]RSISL [SFRS7 phosphopeptide SPRRsRSISL], for which the binding result in assay [4] is listed as “binds”.
With RPR[pS]LEVTI (also called Pyrin) [MEFV phosphopeptide RPRsLEVTI], in [2], the binding result was “binds”.
As for RPRAN[pS]GGVDL [RREB1 phosphopeptide RPRANsGGVDL], the binding result in [5] is on record as “binds”.
For RPR[pS]PGSNSKV [GTF2IRD1 phosphopeptide RPRsPGSNSKV], the binding result in [2] is “binds”.
As to RPP[pS]SEFLDL [RERE phosphopeptide RPPsSEFLDL], the binding result in assay [6] is reported as “binds”.

B1: GRK2 phosphopeptide KPRsPVVEL (peptide)
peptide: KPR[pS]PVVEL
notes: also called Beta-Adrenergic receptor kinase 1
For B1, the binding result in assay [3] was “binds”.
On to KPA[pS]PKFIVTL [ZC3H14 phosphopeptide KPAsPKFIVTL], for which, in [5], the binding result is “binds”.
Regarding FSI[pS]PVRL [SON phosphopeptide FSIsPVRL], in assay [7], the binding result is on record as “binds”.
Same read-out and setting: under RPQRA[pT]SNVF [MYL9 phosphopeptide RPQRAtSNVF] stands “binds”.
For RPRPH[pS]APSL [MIIP phosphopeptide RPRPHsAPSL], the binding result in assay [5] is reported as “binds”.
For RQI[pS]QDVKL (also called AMPD2) [Adenosine monophosphate deaminase 2 phosphopeptide RQIpSQDVKL], in assay [8], the binding result is listed as “binds”.
Still for that read-out and setting: the entry for RQD[pS]TPGKVFL (also called NR2C1) [Nuclear hormone receptor TR2 phosphopeptide RQDpSTPGKVFL] is “binds”.
On to SPR[pS]PSTTYL [CHAF1A phosphopeptide SPRsPSTTYL], for which the binding result in [5] was “binds”.
Turning to KPPH[pS]PLVL [MYC phosphopeptide KPPHsPLVL], the binding result in [7] is recorded as “binds”.
As for RPR[pS]AVLL [AKAP13 phosphopeptide RPRsAVLL], in assay [5], the binding result was “binds”.

B2: β-Synemin phosphopeptide RTFpSPTYGL (peptide)
peptide: RTF[pS]PTYGL
notes: also called SYNM; pS429-β-Synemin426-434
Take B2: in [8], the binding result is recorded as “binds”.
Consider KPP[pS]PEHQSL [MORC2 phosphopeptide KPPsPEHQSL], for which the binding result in assay [9] is on record as “binds”.
Turning to RPP[pS]PGPVL [SCAP phosphopeptide RPPsPGPVL], the binding result in assay [3] was “binds”.
For RPA[pS]ARAQPGL [RPAsARAQPGL], in assay [10], the binding result is on record as “binds”.
Regarding KPY[pS]PLASL [NFATC2 phosphopeptide KPYsPLASL], the binding result in assay [3] is on record as “binds”.

B3: pS33-βcat30 (YLD(pS)GIHSGA, β-catenin 30-39 with phosphoserine 33) (peptide)
peptide: YLD[pS]GIHSGA
notes: also called pS33-βcatenin30-39; YLDsGIHSGA
As to B3, in assay [11], the concentration for half-maximal inhibition (IC50) was 0.327 µg/mL.
As to RAP[pS]PSSRM [SRRM2 phosphopeptide RAPsPSSRM], the binding result in [7] is reported as “binds”.
Same read-out and setting: the entry for RPA[pS]AGAML [MEF2D phosphopeptide RPAsAGAML] is “binds”.
For the molecule RRS[pS]LDAEIDSL [LPP phosphopeptide RRSsLDAEIDSL], the binding result in assay [2] is recorded as “binds”.
In the case of KPA[pS]PARRL [MAP1A phosphopeptide KPAsPARRL], the binding result in [9] is “binds”.
Take SPGLARKR[pS]L [ZFP106 phosphopeptide SPGLARKRsL]: the binding result in [2] was “binds”.
As for RPA[pS]PAAKL [KIAA1310 phosphopeptide RPAsPAAKL], in assay [3], the binding result is “binds”.
RPQRAT[pS]NVF [MYL9 phosphopeptide RPQRATsNVF]: the binding result in assay [5] is “binds”.
Still for that read-out and setting: under SPS[pS]PSVRRQL [ANKRD17 phosphopeptide SPSsPSVRRQL] stands “binds”; under FRR[pS]PTKSSL [RBM14 phosphopeptide FRRsPTKSSL], “binds”; under YQR[pS]FDEVEGVF [GIGYF2 phosphopeptide YQRsFDEVEGVF], “binds”.
Still for that read-out and setting: under RPR[pS]PSPIS [GRM5 phosphopeptide RPRsPSPIS] stands “binds”.
On to RPKLS[pS]PAL [EP300 phosphopeptide RPKLSsPAL], for which the binding result in assay [2] is on record as “binds”.
On to SPRR[pS]RSISL [SPRRsRSISL], for which the binding result in [10] was “binds”.
On to KPR[pS]PVVEL [KPRsPVVEL], for which the binding result in assay [10] is recorded as “binds”.
Consider RPR[pS]PAARL [ZNF219 phosphopeptide RPRsPAARL], for which the binding result in assay [2] is given as “binds”.
As to RPV[pT]PVSDL [KLF10 phosphopeptide RPVtPVSDL], in assay [7], the binding result was “binds”.
Regarding RPY[pS]PPFFSL [FAM53C phosphopeptide RPYsPPFFSL], in [3], the binding result is “binds”.

B4: pS33/S37-βcat30 (doubly phosphorylated β-catenin 30-39) (peptide)
peptide: YLD[pS]GIH[pS]GA
notes: also called pS33/pS37-βcat30; pS33/37-βcat30
Take B4: the half-inhibitory concentration (IC50) in [11] was found to be 0.678 µg/mL.
With RLL[pS]PLSSA (also called RAVER1) [phosphopeptide RLLpSPLSSA (source protein Unknown in Table 5)], the binding result in assay [8] is listed as “binds”.
As for RRK[pS]QVAEL [MKI67IP phosphopeptide RRKsQVAEL], in assay [4], the binding result was “binds”.
KPP[pT]PGASF [SPEN phosphopeptide KPPtPGASF]: the binding result in assay [6] is given as “binds”.
Turning to EPKRR[pS]ARL [HMGN1 phosphopeptide EPKRRsARL], the binding result in [2] is listed as “binds”.
Consider SPSTSRSGG[pS]SRL [C1orf63 phosphopeptide SPSTSRSGGsSRL], for which the binding result in assay [2] is given as “binds”.
YQR[pS]FDEVEGV [GIGYF2 phosphopeptide YQRsFDEVEGV]: the binding result in assay [2] is recorded as “binds”.
As to RPV[pS]PFQEL [phosphopeptide RPVsPFQEL (no gene name in Table 7; no database hit)], the binding result in assay [6] is reported as “binds”.
Consider FRR[pS]PTKSSLDY [RBM14 phosphopeptide FRRsPTKSSLDY], for which the binding result in [4] is on record as “binds”.
For the molecule RPAK[pS]MDSL [ARHGAP30 phosphopeptide RPAKsMDSL], in [3], the binding result is “binds”.
On the same count and under the same terms, under RPD[pS]RLGKTEL [SETD2 phosphopeptide RPDsRLGKTEL] stands “binds”.
With RPR[pS]PTGP[pS]NSF (also called Splicing factor 45) [RBM17 phosphopeptide RPRsPTGPsNSF], the binding result in [5] is reported as “binds”.
As for RSL[pS]PLLF [VPS13D phosphopeptide RSLsPLLF], the binding result in assay [3] is recorded as “binds”.
With RPR[pS]PTGP (also called Splicing factor 45) [RBM17 phosphopeptide RPRsPTGP], the binding result in assay [4] is recorded as “binds”.
With LPA[pS]PRARL [MAP7D1 phosphopeptide LPAsPRARL], the binding result in [2] is “binds”.
Take RPSRS[pS]PGL [SYNPO phosphopeptide RPSRSsPGL]: the binding result in assay [5] is recorded as “binds”.
With VPR[pS]PKHAHSSSL (also called Supervillin) [SVIL phosphopeptide VPRsPKHAHSSSL], the binding result in [2] is reported as “binds”.

Usually IC50 stands for the concentration needed to halve the response being measured.
